According to PMC12416549 (2024):
Positions count from the first letter of the chain named. Names may count otherwise.

T1: TNFR1 (Homo sapiens, UniProt P19438)
T1 chain: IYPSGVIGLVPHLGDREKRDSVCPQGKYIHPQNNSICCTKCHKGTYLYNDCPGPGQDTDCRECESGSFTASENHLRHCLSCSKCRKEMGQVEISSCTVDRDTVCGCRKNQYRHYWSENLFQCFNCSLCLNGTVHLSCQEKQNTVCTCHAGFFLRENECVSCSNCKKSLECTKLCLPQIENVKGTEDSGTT

B1: A106Y (designed binder)
chain: SMEEEVEKAAKEYEKKKKEAIEKHLEKLKAKDKEAAERFLKELEEAAKEYAKDEAKTMSEEEAKRRAKKYKEKVLLSELSEEEQKEIKEAEEKLVRTILKYVEEAYK
B2: Y70P (designed binder)
chain: B1 chain with Y70P, Y106A
B3: E103G (designed binder)
chain: B1 chain with E103G, Y106A
B4: T97G (designed binder)
chain: B1 chain with T97G, Y106A
B5: Q84L (designed binder)
chain: B1 chain with Q84L, Y106A
B6: E89H (designed binder)
chain: B1 chain with E89H, Y106A
B7: L75N (designed binder)
chain: B1 chain with L75N, Y106A
B8: A20E (designed binder)
chain: B1 chain with A20E, Y106A
B9: A55V (designed binder)
chain: B1 chain with A55V, Y106A
B10: H24A (designed binder)
chain: B1 chain with H24A, Y106A
B11: E4S (designed binder)
chain: B1 chain with E4S, Y106A
B12: E78W (designed binder)
chain: B1 chain with E78W, Y106A
B13: A63S (designed binder)
chain: B1 chain with A63S, Y106A
B14: E7N (designed binder)
chain: B1 chain with E7N, Y106A
B15: K41Q (designed binder)
chain: B1 chain with K41Q, Y106A
B16: E22D (designed binder)
chain: B1 chain with E22D, Y106A
B17: K71F (designed binder)
chain: B1 chain with K71F, Y106A
B18: K100Q (designed binder)
chain: B1 chain with K100Q, Y106A
B19: K73W (designed binder)
chain: B1 chain with K73W, Y106A
B20: L25C (designed binder)
chain: B1 chain with L25C, Y106A
B21: K68G (designed binder)
chain: B1 chain with K68G, Y106A
B22: T97K (designed binder)
chain: B1 chain with T97K, Y106A
B23: E54N (designed binder)
chain: B1 chain with E54N, Y106A
B24: D32V (designed binder)
chain: B1 chain with D32V, Y106A
B25: E19F (designed binder)
chain: B1 chain with E19F, Y106A
B26: K107T (designed binder)
chain: B1 chain with Y106A, K107T
B27: K11H (designed binder)
chain: B1 chain with K11H, Y106A
B28: A46R (designed binder)
chain: B1 chain with A46R, Y106A
B29: K100P (designed binder)
chain: B1 chain with K100P, Y106A
B30: K52P (designed binder)
chain: B1 chain with K52P, Y106A
B31: E60C (designed binder)
chain: B1 chain with E60C, Y106A
B32: K100M (designed binder)
chain: B1 chain with K100M, Y106A
B33: E78R (designed binder)
chain: B1 chain with E78R, Y106A
B34: E34A (designed binder)
chain: B1 chain with E34A, Y106A
B35: E86I (designed binder)
chain: B1 chain with E86I, Y106A
B36: L40K (designed binder)
chain: B1 chain with L40K, Y106A
B37: L28R (designed binder)
chain: B1 chain with L28R, Y106A
B38: A51P (designed binder)
chain: B1 chain with A51P, Y106A
B39: K48D (designed binder)
chain: B1 chain with K48D, Y106A
B40: K23I (designed binder)
chain: B1 chain with K23I, Y106A
B41: I98K (designed binder)
chain: B1 chain with I98K, Y106A
B42: I87A (designed binder)
chain: B1 chain with I87A, Y106A
B43: E78F (designed binder)
chain: B1 chain with E78F, Y106A
B44: E82N (designed binder)
chain: B1 chain with E82N, Y106A
B45: E72C (designed binder)
chain: B1 chain with E72C, Y106A
B46: L75A (designed binder)
chain: B1 chain with L75A, Y106A
B47: E91I (designed binder)
chain: B1 chain with E91I, Y106A
B48: E45G (designed binder)
chain: B1 chain with E45G, Y106A
B49: E14P (designed binder)
chain: B1 chain with E14P, Y106A
B50: R66S (designed binder)
chain: B1 chain with R66S, Y106A
B51: E22N (designed binder)
chain: B1 chain with E22N, Y106A
B52: E4C (designed binder)
chain: B1 chain with E4C, Y106A
B53: E14K (designed binder)
chain: B1 chain with E14K, Y106A
B54: A67Y (designed binder)
chain: B1 chain with A67Y, Y106A
B55: E61I (designed binder)
chain: B1 chain with E61I, Y106A
B56: K16R (designed binder)
chain: B1 chain with K16R, Y106A
B57: K88Q (designed binder)
chain: B1 chain with K88Q, Y106A
B58: E4K (designed binder)
chain: B1 chain with E4K, Y106A
B59: K16T (designed binder)
chain: B1 chain with K16T, Y106A

Target: T1, TNFR1
Assay: yeast display SC50

Row | Binder | apparent Kd (screen) [nM]
1 | B1 | 2.73
2 | B2 | 5.31
3 | B3 | 0.539
4 | B4 | 1.86
5 | B5 | 2.48
6 | B6 | 1.69
7 | B7 | 0.869
8 | B8 | 1.16
9 | B9 | 3
10 | B10 | 1.05
11 | B11 | 0.539
12 | B12 | 2.73
13 | B13 | 3.99
14 | B14 | 1.27
15 | B15 | 0.718
16 | B16 | 0.49
17 | B17 | 2.48
18 | B18 | 0.539
19 | B19 | 15.2
20 | B20 | 1.4

Row | Binder | apparent Kd (screen) [nM]
21 | B21 | 1.27
22 | B22 | 0.539
23 | B23 | 12.5
24 | B24 | 7.07
25 | B25 | 0.446
26 | B26 | 0.869
27 | B27 | 0.956
28 | B28 | 1.54
29 | B29 | 3
30 | B30 | 4.39
31 | B31 | 1.05
32 | B32 | 1.05
33 | B33 | 1.86
34 | B34 | 1.05
35 | B35 | 1.69
36 | B36 | 0.446
37 | B37 | 1.86
38 | B38 | 6.43
39 | B39 | 0.49
40 | B40 | 0.539

Row | Binder | apparent Kd (screen) [nM]
41 | B41 | 4.83
42 | B42 | 13.8
43 | B43 | 0.49
44 | B44 | 1.86
45 | B45 | 1.05
46 | B46 | 0.405
47 | B47 | 7.78
48 | B48 | 2.05
49 | B49 | 11.4
50 | B50 | 7.07
51 | B51 | 0.869
52 | B52 | 1.27
53 | B53 | 3
54 | B54 | 22.2
55 | B55 | 1.54
56 | B56 | 1.4
57 | B57 | 0.49
58 | B58 | 1.86
59 | B59 | 1.05
